Laboratory results taken from patent US20050142114A1.

How the values were obtained:
[1] = target: CD209 (DC-SIGN) on monocyte-derived dendritic cells (human) (UniProt Q9NNX6); assay: flow cytometry, percent of MoDCs positive for calcein after monospecific anti-CD209 protein A immunoliposomes (FIG. 4A)
[2] = target: CD209 (DC-SIGN) on monocyte-derived dendritic cells (human) (UniProt Q9NNX6); assay: flow cytometry; calcein signal of immunoliposomes relative to FITC signal of the mAb
[3] = target: CD209 (DC-SIGN) on monocyte-derived dendritic cells (human) (UniProt Q9NNX6); assay: flow cytometry, right shift of the whole histogram vs. control peak (FIG. 1)

UniProt Q9NNX6, sequence (Q9NNX6 whole entry): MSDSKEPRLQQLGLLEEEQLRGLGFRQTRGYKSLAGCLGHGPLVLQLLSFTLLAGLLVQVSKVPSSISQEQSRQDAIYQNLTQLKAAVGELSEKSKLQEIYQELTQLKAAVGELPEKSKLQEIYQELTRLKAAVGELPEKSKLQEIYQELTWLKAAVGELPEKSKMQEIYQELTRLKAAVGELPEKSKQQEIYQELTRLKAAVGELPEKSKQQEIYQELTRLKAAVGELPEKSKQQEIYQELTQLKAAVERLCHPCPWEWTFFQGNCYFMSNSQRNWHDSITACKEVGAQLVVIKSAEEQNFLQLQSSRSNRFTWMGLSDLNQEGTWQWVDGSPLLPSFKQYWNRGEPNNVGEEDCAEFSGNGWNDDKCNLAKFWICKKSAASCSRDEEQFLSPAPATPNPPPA

CD209-specific mAb derived from clone 120507 (IgG2b), R&D Systems (antibody)
liposomal targeting efficacy [1]: 83.3% | TEILS (immunoliposomal net targeting efficacy) [2]: 110% | percent of cells targeted [3]: 100%
